Reference: publication PMC10615762

Biological target: Fusion protein of Nipah virus (F-clamp) (Nipah virus)
Assay: SEC

Substance: Fusion protein of Nipah virus (F-clamp)
- stoichiometry N: 3
